Measured values: patent US20260242478A1 (published 2026)
Where no end group is shown, it is not given here.

B1: Phage-1494 (Peptide-92 library clone, SEQ ID NO: 1790) (peptide)
peptide: TCSAGATYNWPWCF
notes: Tested as clonal phage supernatant; not shown: fused to pIII of the bacteriophage
B2: Phage-1492 (Peptide-92 library clone, SEQ ID NO: 1788) (peptide)
peptide: TCSAGAHFAWPMCF
notes: as for B1
B3: Phage-1500 (Peptide-92 library clone, SEQ ID NO: 1796) (peptide)
peptide: LCAAGANYPWPACL
notes: as for B1
B4: Phage-1502 (Peptide-92 library clone, SEQ ID NO: 1798) (peptide)
peptide: SCAAGLSYPWPDCL
notes: as for B1
B5: Phage-1499 (Peptide-92 library clone, SEQ ID NO: 1795) (peptide)
peptide: TCAAGAMWVWPTCL
notes: as for B1
B6: Phage-1498 (Peptide-92 library clone, SEQ ID NO: 1794) (peptide)
peptide: LCSAGAMYPWPLCY
notes: as for B1
B7: Phage-1501 (Peptide-92 library clone, SEQ ID NO: 1797) (peptide)
peptide: SCAAGATYTWPMCI
notes: as for B1
B8: Phage-1496 (Peptide-92 library clone, SEQ ID NO: 1792) (peptide)
peptide: WCAAGAMYPWPLCL
notes: as for B1
B9: Phage-1493 (Peptide-92 library clone, SEQ ID NO: 1789) (peptide)
peptide: SCAAGAHYVWPFCF
notes: as for B1
B10: Phage-1497 (Peptide-92 library clone, SEQ ID NO: 1793) (peptide)
peptide: LCNAGAPYKWPTCL
notes: as for B1
B11: Phage-1495 (Peptide-92 library clone, SEQ ID NO: 1791) (peptide)
peptide: TCSAGASYPWPVCL
notes: as for B1
B12: Phage-1503 (Peptide-92 library clone, SEQ ID NO: 1799) (peptide)
peptide: TCAAGAGWAWPFCF
notes: as for B1
B13: Phage-1491 (Peptide-92 library clone, SEQ ID NO: 1787) (peptide)
peptide: TCSAGAHWTWPLCF
notes: as for B1
B14: Phage-1490 (Peptide-92 library clone, SEQ ID NO: 1786) (peptide)
peptide: RCAAGVMYDWPVCL
notes: as for B1

The binders below were run against Anti-CD28 Fab (SEQ ID NOs: 696, 697) (assay: phage binding ELISA; anti-CD28 Fab on plate pre-incubated with CD28 antigen as competitor).
Target sequence in this assay (VH, as listed by the source, chain 1 of 2): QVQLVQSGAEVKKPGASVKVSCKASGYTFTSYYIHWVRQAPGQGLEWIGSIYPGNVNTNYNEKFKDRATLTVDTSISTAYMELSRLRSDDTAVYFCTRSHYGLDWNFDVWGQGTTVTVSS
Target sequence in this assay (VL, as listed by the source, chain 2 of 2): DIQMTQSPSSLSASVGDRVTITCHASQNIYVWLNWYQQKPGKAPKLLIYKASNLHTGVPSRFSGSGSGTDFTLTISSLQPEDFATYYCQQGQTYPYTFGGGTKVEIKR
Experimental: (§1) Clonal phage were harvested as crude supematants and screened via standard ELISAs. […] Prior to the addition of clonal phage, wells were incubated with blocking buffer and CD28 antigen or blocking buffer alone. Without washing or aspirating, clonal phage supematants were then added to the wells and incubated for a short time. Wells were then washed followed by detection of bound phage using a horse radish conjugated anti-M13 antibody.

Binder	Anti-CD28 Fab signal in the presence of CD28
TCAAGAHYPWPYCL [Phage-1467 peptide (Peptide-92 library, SEQ ID NO: 1763)]	0.05
YCSAGAQWPWPICL [Phage-1461 peptide (Peptide-92 library, SEQ ID NO: 1757)]	0.08
TCSAGFSLQLSICL [Phage-1469 peptide (Peptide-92 library, SEQ ID NO: 1765)]	0.06
SCAAGASYSWPACF [Phage-1463 peptide (Peptide-92 library, SEQ ID NO: 1759)]	0.07
GCAAGAHYPWPFCL [Phage-1472 peptide (Peptide-92 library, SEQ ID NO: 1768)]	0.06
SCAAGASYPWPQCL [Phage-1470 peptide (Peptide-92 library, SEQ ID NO: 1766)]	0.11
LCKPGVPYQWPTCL [Phage-1465 peptide (Peptide-92 library, SEQ ID NO: 1761)]	0.07
LCTAGLAYNWPTCL [Phage-1471 peptide (Peptide-92 library, SEQ ID NO: 1767)]	0.05
WCAEFFNYHWPLCF [Phage-1468 peptide (Peptide-92 library, SEQ ID NO: 1764)]	0.06
TCAAGASYQWPLCF [Phage-1462 peptide (Peptide-92 library, SEQ ID NO: 1758)]	0.07
MCTAGALYNWPTCL [Phage-1466 peptide (Peptide-92 library, SEQ ID NO: 1762)]	0.09
TCAAGANYPWPLCL [Phage-1474 peptide (Peptide-92 library, SEQ ID NO: 1770)]	0.08
TCAAGAVWEWPMCF [Phage-1473 peptide (Peptide-92 library, SEQ ID NO: 1769)]	0.07
SCSAGFHYPWPICL [Phage-1464 peptide (Peptide-92 library, SEQ ID NO: 1760)]	0.07

Each binder was assayed against T1, Anti-CD28 Fab (SEQ ID NOs: 696, 697) (assay: phage binding ELISA on captured anti-CD28 Fab; competitor CD28 antigen pre-incubated in the wells).
T1 construct: Biotinylated and captured on neutravidin coated plates in the phage ELISA
T1 sequence (VH, as listed by the source, chain 1 of 2): as the sequence (VH, as listed by the source, chain 1 of 2) above
T1 sequence (VL, as listed by the source, chain 2 of 2): as the sequence (VL, as listed by the source, chain 2 of 2) above
Experimental: as §1

Binder	Anti-CD28 Fab signal in the presence of CD28
WCTAGFSYKLSICL (peptide, not shown: large carriers) [Phage-1507]	0.06
TCAAGAHYEWPMCY (peptide, not shown: large carriers) [Phage-1510]	0.12
MCSAGATYPWPYCL (peptide, not shown: large carriers) [Phage-1504]	0.1
TCAAGATWPWPSCL (peptide, not shown: large carriers) [Phage-1512]	0.08
LCSAGATYPWPWCM (peptide, not shown: large carriers) [Phage-1505]	0.06
LCSAGAMYQWPTCL (peptide, not shown: large carriers) [Phage-1508]	0.06
DCWGDAPYPWRVCL (peptide, not shown: large carriers) [Phage-1506]	0.07
TCAAGAHWIWPWCE (peptide, not shown: large carriers) [Phage-1513]	0.07
TCSAGANYEWPWCF (peptide, not shown: large carriers) [Phage-1509]	0.06
SCSAVFSYAWPTCL (peptide, not shown: large carriers) [Phage-1511]	0.08

The binders below were run against Anti-CD28 Fab (SEQ ID NOs: 696, 697) (assay: phage binding ELISA; Fab-coated wells pre-incubated with CD28 antigen as competitor, anti-M13 HRP detection;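 also: crude clonal phage supernatants added without washing after the CD28 pre-incubation, with wells given blocking buffer only (no CD28) as the reference, bound phage read after washing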).
Target sequence in this assay (VH, as listed by the source, chain 1 of 2): as the sequence (VH, as listed by the source, chain 1 of 2) above
Target sequence in this assay (VL, as listed by the source, chain 2 of 2): as the sequence (VL, as listed by the source, chain 2 of 2) above
Experimental: Clonal phage were harvested as crude supematants and screened via standard ELISAs. […] Prior to the addition of clonal phage, wells were incubated with blocking buffer and CD28 antigen or blocking buffer alone. Without washing or aspirating, clonal phage supematants were then added to the wells and incubated for a short time. Wells were then washed followed by detection of bound phage using a horse radish conjugated anti-M13 antibody. Clonal phage of interest were then sent for sequence analysis.

Binder	Anti-CD28 Fab signal in the presence of CD28
TCAAGATYEWPYCF [Phage-1427]	0.06
TCAAGATYEWPTCL [Phage-1430]	0.08
MCAAGAHYTWPTCL (cysteine pairing not given here; also: fused to phage pIII protein) [Phage-1424]	0.07
WCAAVFSYTWSPCL [Phage-1428]	0.07
MCSAGANYPWPWCL [Phage-1426]	0.08
TCAAGAAYTWPACF [Phage-1429]	0.06
TCSAGATYEWPWCM [Phage-1425]	0.07

These binders were tested against Anti-CD28 Fab (SEQ ID NOs: 696, 697) (assay: phage binding ELISA; biotinylated anti-CD28 Fab on neutravidin plate, clonal phage detected with anti-M13 HRP).
Target sequence in this assay (VH, as listed by the source, chain 1 of 2): as the sequence (VH, as listed by the source, chain 1 of 2) above
Target sequence in this assay (VL, as listed by the source, chain 2 of 2): as the sequence (VL, as listed by the source, chain 2 of 2) above
Experimental: as §1

Binder	Anti-CD28 Fab (SEQ ID NOs: 696, 697) signal
TCAAGAHYPWPYCL [Phage-1467 peptide (Peptide-92 library, SEQ ID NO: 1763)]	1.77
YCSAGAQWPWPICL [Phage-1461 peptide (Peptide-92 library, SEQ ID NO: 1757)]	1.79
TCSAGFSLQLSICL [Phage-1469 peptide (Peptide-92 library, SEQ ID NO: 1765)]	1.77
SCAAGASYSWPACF [Phage-1463 peptide (Peptide-92 library, SEQ ID NO: 1759)]	1.79
GCAAGAHYPWPFCL [Phage-1472 peptide (Peptide-92 library, SEQ ID NO: 1768)]	1.76
SCAAGASYPWPQCL [Phage-1470 peptide (Peptide-92 library, SEQ ID NO: 1766)]	1.77
LCKPGVPYQWPTCL [Phage-1465 peptide (Peptide-92 library, SEQ ID NO: 1761)]	1.78
LCTAGLAYNWPTCL [Phage-1471 peptide (Peptide-92 library, SEQ ID NO: 1767)]	1.77
WCAEFFNYHWPLCF [Phage-1468 peptide (Peptide-92 library, SEQ ID NO: 1764)]	1.77
TCAAGASYQWPLCF [Phage-1462 peptide (Peptide-92 library, SEQ ID NO: 1758)]	1.79
MCTAGALYNWPTCL [Phage-1466 peptide (Peptide-92 library, SEQ ID NO: 1762)]	1.78
TCAAGANYPWPLCL [Phage-1474 peptide (Peptide-92 library, SEQ ID NO: 1770)]	1.75
TCAAGAVWEWPMCF [Phage-1473 peptide (Peptide-92 library, SEQ ID NO: 1769)]	1.76
SCSAGFHYPWPICL [Phage-1464 peptide (Peptide-92 library, SEQ ID NO: 1760)]	1.79

The binders below were run against T2, Anti-CD28 Fab (SEQ ID NOs: 696, 697) (assay: phage ELISA; biotinylated anti-CD28 Fab on neutravidin plate, clonal phage supernatant, anti-M13 HRP detection;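 also: before phage addition, wells were pretreated with either CD28 antigen in blocking buffer or only blocking buffer, and phage was added without an intervening wash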).
T2 construct: In the phage ELISA the Fab was biotinylated and captured on neutravidin coated plates
T2 sequence (VH, as listed by the source, chain 1 of 2): as the sequence (VH, as listed by the source, chain 1 of 2) above
T2 sequence (VL, as listed by the source, chain 2 of 2): as the sequence (VL, as listed by the source, chain 2 of 2) above
Experimental: as §1

Binder	Phage binding ELISA, Anti-CD28 Fab signal
B1	1.68
B2	1.69
B3	1.66
B4	1.65
B5	1.66
B6	1.66
B7	1.66
B8	1.67
B9	1.68
B10	1.66
B11	1.67
B12	1.65
B13	1.69
B14	1.7

Each binder was assayed against T1, Anti-CD28 Fab (SEQ ID NOs: 696, 697) (assay: phage binding ELISA; clonal phage on biotinylated anti-CD28 Fab captured on neutravidin, anti-M13-HRP detection).
Experimental: as §1

Binder	Anti-CD28 Fab (SEQ ID NOs: 696, 697) signal
WCTAGFSYKLSICL (peptide, not shown: large carriers) [Phage-1507]	1.63
TCAAGAHYEWPMCY (peptide, not shown: large carriers) [Phage-1510]	1.61
MCSAGATYPWPYCL (peptide, not shown: large carriers) [Phage-1504]	1.64
TCAAGATWPWPSCL (peptide, not shown: large carriers) [Phage-1512]	1.61
LCSAGATYPWPWCM (peptide, not shown: large carriers) [Phage-1505]	1.64
LCSAGAMYQWPTCL (peptide, not shown: large carriers) [Phage-1508]	1.63
DCWGDAPYPWRVCL (peptide, not shown: large carriers) [Phage-1506]	1.64
TCAAGAHWIWPWCE (peptide, not shown: large carriers) [Phage-1513]	1.61
TCSAGANYEWPWCF (peptide, not shown: large carriers) [Phage-1509]	1.62
SCSAVFSYAWPTCL (peptide, not shown: large carriers) [Phage-1511]	1.61

What follows are binders tested against Anti-CD28 Fab (SEQ ID NOs: 696, 697) (assay: phage binding ELISA; biotinylated anti-CD28 Fab on neutravidin plate, clonal phage supernatant, anti-M13 HRP detection;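 also: wells pretreated with blocking buffer, either plus or minus CD28 antigen, then given crude phage supernatant briefly without washing in between, then washed before anti-M13 HRP readout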).
Target sequence in this assay (VH, as listed by the source, chain 1 of 2): as the sequence (VH, as listed by the source, chain 1 of 2) above
Target sequence in this assay (VL, as listed by the source, chain 2 of 2): as the sequence (VL, as listed by the source, chain 2 of 2) above
Experimental: as §1

Binder	Anti-CD28 Fab (SEQ ID NOs: 696, 697) signal
TCAAGATYEWPYCF [Phage-1427]	1.96
TCAAGATYEWPTCL [Phage-1430]	1.96
MCAAGAHYTWPTCL (cysteine pairing not given here; also: fused to phage pIII protein) [Phage-1424]	1.97
WCAAVFSYTWSPCL [Phage-1428]	1.96
MCSAGANYPWPWCL [Phage-1426]	1.97
TCAAGAAYTWPACF [Phage-1429]	1.96
TCSAGATYEWPWCM [Phage-1425]	1.97

What follows are binders tested against T2, Anti-CD28 Fab (SEQ ID NOs: 696, 697) (assay: phage ELISA; Fab-coated wells pre-incubated with CD28 antigen as competitor, clonal phage supernatant, anti-M13 HRP detection).
Experimental: as §1

Binder	Phage binding ELISA, Anti-CD28 Fab signal in the presence of CD28
B1	0.05
B2	0.07
B3	0.07
B4	0.07
B5	0.07
B6	0.08
B7	0.07
B8	0.06
B9	0.08
B10	0.07
B11	0.07
B12	0.09
B13	0.06
B14	0.07
